Measurements published in patent US12691168B2, “Vaccine for preventing and treating Merkel cell carcinoma” (priority 2020, dated 2026).

B1: rVP1: recombinant VP1 from inclusion bodies, disassembled with DTT/EGTA and reassembled under GSSG-GSH condition (protein)
chain: MAPKRKASSTCKTPKRQCIPKPGCCPNVASVPKLLVKGGVEVLSVVTGEDSITQIELYLNPRMGVNSPDLPTTSNWYTYTYDLQPKGSSPDQPIKENLPAYSVARVSLPMLNEDITCDTLQMWEAISVKTEVVGISSLINVHYWDMKRVHDYGAGIPVSGVNYHMFAIGGEPLDLQGLVLDYQTEYPKTTNGGPITIETVLGRKMTPKNQGLDPQAKAKLDKDGNYPIEVWCPDPSKNENSRYYGSIQTGSQTPTVLQFSNTLTTVLLDENGVGPLCKGDGLFISCADIVGFLFKTSGKMALHGLPRYFNVTLRKRWVKNPYPVVNLINSLFSNLMPKVSGQPMEGKDNQVEEVRIYEGSEQLPGDPDIVRFLDKFGQEKTVYPKPSVAPAAVTFQSNQQDKGKAPLKGPQKASQKESQTQELHHHHHH
B2: sVP1: soluble VP1 expressed under low-temperature induction (protein)
chain: B1 chain

What was measured:
CMS5 cells = test: Killing effect of puromycin on CMS5 cells (trypan blue staining, microscope); format: cell-based; details: puromycin 5 μg/mL, 24 h of culture
Experimental: In order to determine the killing dose of puromycin to CMS5, CMS5 cells were cultured in RPMI1640 (10% FBS, 1% […]) complete media with different concentrations of puromycin. 24 h later, cells were stained with trypan blue and observed under a microscope for mortality to determine the drug concentration for 100% lethality of CMS5 cells as the drug pressure for CMS5-VP1 cell line screening. […] After 24 h of culture, the CMS5 cells digested with trypsin were stained with trypan blue and the lethality of the cells was calculated microscopically to determine the final puromycin drug concentration. […]

[1] = Particle size by nano particle sizer; format: physicochemical
Experimental: 5) The VP1 was detected for pentamer formation by Nu-PAGE. The MCV-VP1 particle size was measured using a nano particle sizer.
3) Reassembled (also known as self-assembled) recombinant VP1 was named (rVP1), and rVP1 was filtered through a […] needle filter for sterilization, detected for the pentamer structure by Nu-PAGE, and measured for the particle size by a nano particle sizer.

[2] = test system: anti-VP1 antibody in serum; test: VP1-specific antibody titer in serum of immunized mice by ELISA; format: in vivo, BALB/c mice; details: Example 14; antigen adsorbed to Al(OH)3, i.m. days 0 and 14, blood day 28; plate coated with sVP1
Experimental: Enzyme-linked immunosorbent assay: on day 21, blood samples were collected from the mice, and the serum was determined for specific antibody titer by ELISA. When the antibody concentration in the mouse serum needs to be semi-quantitatively determined, a standard curve is added on the basis of the conventional ELISA, and the concentration of the antibody in the mouse serum is determined according to the concentration of the standard curve.
Blood was taken from the fundus of BALB/c mice who have completed the immunization program on day 28 after the initial immunization and left to stand at 4° C. overnight. The blood was centrifuged at 6000 rpm for 10 min to obtain serum. The level of anti-VP1 antibody in serum was determined by ELISA. The specific procedures were as follows: […]
The optical absorbance values were read at OD450/OD620 nm, and a value of 2.1 times the OD value of the negative control group was taken as a cutoff value. […]
In order to obtain a large amount of VP1, VP1 expressed under high-temperature induction in a fermentation tank mainly formed inclusion bodies. […] The antigen-specific antibody titer was determined by enzyme-linked immunosorbent assay (ELISA), and the specific procedures were as follows: […]
Reading: optical absorbance values were read at OD450/OD620. […]

[3] = test system: DTH (delayed type hypersensitivity); test: Delayed type hypersensitivity (DTH), foot pad / paw swelling after antigen injection; format: in vivo, mice; details: Example 13; two immunizations; 24 h after injection of rVP1; therapeutic vaccine groups compared with Vac group
Experimental: Delayed Type Hypersensitivity (DTH): the mice were immunized with the vaccine, and 7 days after the final immunization, 10 μL of antigen protein (10 μg) was injected into the hindfoot pad on the immunized side (right side) of the mice, and 10 μL of phosphate buffer was injected into the hindfoot pad on the side opposite to the immunized side (left side). The thickness of both hindfoot pads of the mice was measured 24 h and 48 h after DTH with a vernier caliper, and the measurement was performed three times at the same site to take the average. DTH value (mm)=right foot pad thickness−left foot pad thickness.
On day 7 after the immunization program, mice were injected with 10 μL of PBS or 10 μg of rVP1 (10 μL) at the left and right hind limb paws.
The paw swelling thickness was calculated for each experimental group according to the formula, and the differences between all vaccine groups were analyzed with GraphPad Prism statistical software.

| Molecule | dead CMS5 cells, trypan blue staining (CMS5 cells) [%] | state of the cells observed under a microscope (CMS5 cells) | particle size [1] | antigen-specific antibody titer relative to sVP1 [2] | DTH reaction (paw swelling thickness) [3] |
| --- | --- | --- | --- | --- | --- |
| COc1ccc(C[C@H](N)C(=O)N[C@H]2[C@@H](O)[C@H](n3cnc4c(N(C)C)ncnc43)O[C@@H]2CO)cc1 [puromycin] | 100 | died in large numbers | – | – | – |
| B1 | – | – | 115.3 nm | twice those of sVP1 | not significant |
| B2 | – | – | much higher than that of rVP1 | – | – |
